The text below walks through data of patent US20190092852A1 (Genentech, published 2019).

Like-named read-outs stand apart in the source and are kept apart here.

For one experiment, the target named is T1, biotinylated cyno IL-33 (cynomolgus monkey, UniProt A0A2K5W3I1 112-269, biotin-labeled with EZ-LINK NHS-PEG4-Biotin).
T1 construct: also called biotin-cyIL-33
T1 sequence: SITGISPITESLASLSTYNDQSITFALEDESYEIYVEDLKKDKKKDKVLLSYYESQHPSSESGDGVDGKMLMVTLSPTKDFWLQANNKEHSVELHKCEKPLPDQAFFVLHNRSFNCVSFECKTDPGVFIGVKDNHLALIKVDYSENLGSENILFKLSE
The experiment in a line: competitive ELISA, biotin-cyIL-33 to coated hST2-Fc. Put shortly: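 Recombinant human ST2-Fc coated at 1 μg/ml; biotin-IL-33 (final 20 pM human, 45 pM cyno) premixed 1 h RT with serially diluted antibody (0–300 nM final), then bound to ST2-Fc 1 h RT. Streptavidin-polyHRP/TMB, A450; IC₅₀ from four-parameter fit, max blocking relative to IL-33-alone signal minus background.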

The target of experiment [1] is T2, cynomolgus monkey N-terminal 6-His-tagged and C-terminal Avi-tagged IL-33 (S112-T270) (cynomolgus monkey).
T2 chain: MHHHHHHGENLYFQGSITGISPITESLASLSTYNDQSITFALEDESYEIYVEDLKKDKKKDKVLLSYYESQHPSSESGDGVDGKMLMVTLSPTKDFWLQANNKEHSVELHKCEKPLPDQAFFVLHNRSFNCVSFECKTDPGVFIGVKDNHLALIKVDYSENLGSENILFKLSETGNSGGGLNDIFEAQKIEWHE
The experiment in a line: cell-based or functional assay.

Experiment [2] deals with T3, human IL-33 (R&D Systems, #3625-IL-010/CF) (human, UniProt O95760 112-270).
T3 sequence (looked up): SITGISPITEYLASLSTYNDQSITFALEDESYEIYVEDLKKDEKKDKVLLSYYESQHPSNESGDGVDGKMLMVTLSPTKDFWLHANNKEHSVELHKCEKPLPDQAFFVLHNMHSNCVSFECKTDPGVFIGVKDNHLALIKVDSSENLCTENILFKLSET
In words: cell-based or functional assay.

Experiment [3] addresses T3, human IL-33 (R&D Systems, …). In words: cell-based or functional assay. This is another data set of the same source.
Experiment [4] has the same target. The experiment in a line: cell-based or functional assay. This is another data set of the same source.
For experiment [5] the target is unchanged. The experiment in a line: cell-based or functional assay. The source holds these as a separate data set.
Experiment [6] shares this target. The experiment in a line: cell-based or functional assay. This is another data set of the same source.
In a further experiment the target is T4, biotinylated human IL-33 (human, UniProt O95760 112-270, biotin-labeled with EZ-LINK NHS-PEG4-Biotin).
T4 construct: also called biotin-huIL-33
T4 sequence (looked up): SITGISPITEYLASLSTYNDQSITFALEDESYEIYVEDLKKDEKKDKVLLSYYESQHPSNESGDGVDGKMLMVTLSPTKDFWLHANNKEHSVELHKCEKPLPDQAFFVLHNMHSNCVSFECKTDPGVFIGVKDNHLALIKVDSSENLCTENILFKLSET
The experiment in a line: competitive ELISA, biotin-huIL-33 to coated hST2-Fc. How it is done: The ability of the anti-IL-33 antibody 10C12.38.H6.87Y.58I IgG4 and each anti-IL-33 antibody listed in Table 5 (RG1-RG20) to block either human IL-33 or cyno IL-33 binding to human ST2 receptor was tested in a competitive binding ELISA. Briefly, 1 μg/ml of recombinant human ST2-Fc chimera protein prepared in coating buffer (50 mM sodium carbonate, pH 9.6) was coated on a 384-well MAXISORP® plate (Nalgene Nunc International; Rochester, N.Y.) and incubated overnight at 4° C. On the next day, non-specific binding was blocked with PBS containing 0.5% (w/v) solution of bovine serum albumin (BSA). Fixed concentrations of biotinylated human or cyno IL-33 prepared in assay buffer (25 mM PBS, pH 7.2, 0.1% BSA, 0.05% TWEEN®-20) were mixed with an equal volume of serially-diluted anti-IL-33 antibodies or assay buffer alone and incubated for 1 h at room temperature. The final assay concentrations of biotinylated human IL-33 or cyno IL-33 were 20 pM and 45 pM, respectively, and the final assay concentration of each antibody ranged from 0-300 nM. The pre-mixed solutions were added to the ST2-Fc coated plate and incubated for 1 h at room temperature. The binding of biotinylated IL-33 to coated ST2-Fc was detected by the sequential addition of Streptavidin Poly-HRP80 (Fitzgerald; Buckinghamshire, UK) and 3,3′,5,5′-tetramethyl benzidine (TMB) Microwell Peroxidase Substrate System (KPL; Gaithersburg, Md.). The absorbance (450 nm) was recorded using a […] ASCENT® plate reader (Thermo Scientific; Rockford, Ill.). The binding activity (%) of biotin-IL-33 to ST2 in the presence of anti-IL-33 was plotted as a function of antibody concentration. The data generated were fitted to a four-parameter equation to determine IC₅₀ values for each antibody (FIGS. 25A and 25B) using Prism software (Graphpad Software; La Jolla, Calif.). The maximum blocking (%) of each antibody was calculated as the ratio of the reduction in signal measured in the presence of antibody relative to the difference between the signal with IL-33 alone and background measurements.

Experiment [7] deals with T3, human IL-33 (R&D Systems, …). The experiment in a line: cell-based or functional assay. The source holds these as a separate data set.
The target in experiment [8] is T5, human ST2L on HEK-BLUE IL-33/IL-1beta cells (human, UniProt Q01638 19-556).
T5 sequence: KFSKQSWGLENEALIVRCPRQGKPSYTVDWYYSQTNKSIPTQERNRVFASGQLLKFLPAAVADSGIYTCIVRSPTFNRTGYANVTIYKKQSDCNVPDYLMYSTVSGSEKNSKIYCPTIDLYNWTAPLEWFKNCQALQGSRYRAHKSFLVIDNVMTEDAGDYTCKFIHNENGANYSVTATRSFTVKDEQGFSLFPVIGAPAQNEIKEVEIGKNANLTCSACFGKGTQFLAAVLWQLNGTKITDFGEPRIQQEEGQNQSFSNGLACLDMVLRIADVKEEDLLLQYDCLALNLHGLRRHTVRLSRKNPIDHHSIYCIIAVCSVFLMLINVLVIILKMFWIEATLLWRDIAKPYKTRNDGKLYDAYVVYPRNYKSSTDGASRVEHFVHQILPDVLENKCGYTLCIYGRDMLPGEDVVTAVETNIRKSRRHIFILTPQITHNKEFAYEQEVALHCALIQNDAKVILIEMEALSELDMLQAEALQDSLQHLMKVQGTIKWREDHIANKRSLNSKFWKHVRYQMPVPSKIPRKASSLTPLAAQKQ
In words: cell-based or functional assay.

In experiment [9] the target is T2, cynomolgus monkey N-terminal …. The experiment in a line: cell-based or functional assay.
In experiment [10] the target is T6, cyno IL-33 N-His (cynomolgus monkey).
T6 chain: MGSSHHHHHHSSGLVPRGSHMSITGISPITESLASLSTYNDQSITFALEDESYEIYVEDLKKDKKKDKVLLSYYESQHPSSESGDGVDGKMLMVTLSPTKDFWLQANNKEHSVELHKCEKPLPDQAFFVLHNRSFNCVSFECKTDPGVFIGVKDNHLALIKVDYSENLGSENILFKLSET
In words: SPR Biacore T200, 25 C. The method in brief:
(§1)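 Antibodies captured via anti-Fc on CM5 chip; IL-33 injected at 3.7–100 nM (three-fold series), 4 min association, 10 min dissociation, 30 μl/min, ADA pH 7.4 buffer with 0.15 M NaCl, EDTA, Tween-20, at 25 °C or 37 °C. KD = koff/kon from 1:1 Langmuir fit; t1/2 = ln(2)/(60*koff).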

In experiment [11] the target is T6, cyno IL-33 N-His. In words: SPR Biacore T200, 37 C. The method in brief: as §1
Experiment [12] concerns the target T3, human IL-33 (R&D Systems, …). The experiment in a line: SPR Biacore T200, 25 C. Put shortly:
as §1

Experiment [13] shares this target. In words: SPR Biacore T200, 37 C. Put shortly:
as §1

B1: H1M9568N (antibody, IgG1, V domains shown)
VH: QVLLVQSGAEVKKPGATVKVSCKASGSTFTGYYMHWVRQAPGQGLEWMGWINPNNGGTNYAQKFQGRVTMTRDTSISTAYMELSRLRSDDTAVYYCARELRYNWKSWGQGTLVTVSS
VL: EIVLTQSPGTLSLSPGERVTLSCRASQSVGRPYLAWYQQIPGQAPRLLIYGASSRATDIPDRFSGNGSGTDFTLTISRLEPEDFAVYYCQQYDNSPYTFGQGTRLEIK
notes: also called RG3
In the case of B1, the concentration for half-maximal inhibition (IC50) amounted to 77 nM with biotinylated cyno IL-33 and 0.19 nM with biotinylated human IL-33. The “Maximum Blocking” value with biotinylated cyno IL-33 amounted to 45%; in the experiment with biotinylated human IL-33, 85%. Moreover, in experiment [1], the “IC50; SEAP reporter (OD 620), HEK-BLUE IL-33/IL-1beta cells, 5 pM cyno IL-33 (5pM cIL-33-Nhis)” value was 2.9e-08 M. The “IC50; SEAP reporter (OD 620), HEK-BLUE IL-33/IL-1beta cells, 10 pM hIL-33” value in experiment [2] was found to be 1.1e-10 M. Also, the “IC50 (read off the curve)” value in experiment [3] and in experiment [6] was roughly 0.0004 nM throughout. The “IC50, IL-33-induced phospho-p38 in primary human basophils, 500 pM hIL-33” value in experiment [4] was found to be 4e-13 M. In [5], the “Ph-p38 MFI at 2 nM Ab (500 pM human IL-33, primary basophils)” value worked out at 38 MFI. Moreover, the “Ph-p38 MFI at 0.4 nM Ab (500 pM human IL-33, primary basophils)” value in [7] stood at 88 MFI.

B2: Human IL-33 N-His C-Avi (ligand)
ligand: MHHHHHHGENLYFQGSITGISPITEYLASLSTYNDQSITFALEDESYEIYVEDLKKDEKKDKVLLSYYESQHPSNESGDGVDGKMLMVTLSPTKDFWLHANNKEHSVELHKCEKPLPDQAFFVLHNMHSNCVSFECKTDPGVFIGVKDNHLALIKVDSSENLCTENILFKLSETGNSGGGLNDIFEAQKIEWHE
Consider B2, for which the “EC50 (SEAP reporter OD 620, HEK-BLUE IL-33/IL-1beta cells)” value in experiment [8] turned out to be 0.0098 nM.

B3: H4H9675P (antibody, V domains shown)
VH: EVQLVESGGNLEQPGGSLRLSCTASGFTFSRSAMNWVRRAPGKGLEWVSGISGSGGRTYYADSVKGRFTISRDNSKNTLYLQMNSLSAEDTAAYYCAKDSYTTSWYGGMDVWGHGTTVTVSS
VL: DIQMTQSPSSVSASVGDRVTITCRASQGIFSWLAWYQQKPGKAPKLLIYAASSLQSGVPSRFSGSGSGTDFTLTISSLQPEDFAIYYCQQANSVPITFGQGTRLEIK
Turning to B3, the “HEK-BLUE SEAP reporter, fold weaker than 10C12.38.H6.87Y.58I IgG4” value in experiment [9] turned out to be 14 fold. Also, in the experiment with cyno IL-33 N-His [10], the Kd turned out to be 2.73 nM, the koff was 0.000988 s⁻¹, the kon turned out to be 362000 M⁻¹ s⁻¹ and the t1/2 amounted to 12 min. In addition, the “IC50; SEAP reporter (OD 620), HEK-BLUE IL-33/IL-1beta cells, 5 pM cyno IL-33 (5pM cIL-33-Nhis)” value in [1] amounted to 5.7e-08 M. In the experiment with cyno IL-33 N-His [11], this molecule displayed a Kd of 6.72 nM, a koff of 0.00505 s⁻¹, a kon of 751000 M⁻¹ s⁻¹ and a t1/2 of 2 min.

B4: H4H9629P (antibody, IgG4, V domains shown)
VH: EVQLVESGGGLVQPGGSLRLSCAASGFTFRSFAMSWVRQAPGKGLELVSDLRTSGGSTYYADSVKGRLTISRDNSKNTLYLQMNSLRAEDTAVYYCAKSHYSTSWFGGFDYWGQGTLVTVSS
VL: DIQMTQSPSSVSASVGDRVTITCRASQGFSSWLAWYQQKPGKAPKLLIYAASSLQSGVPSRFSGSGSGTDFTLTITNLQPEDFATYYCQQANSFPLTFGGGTKVEIK
notes: also called RG4
In [12], B4 yielded a Kd of 0.559 nM, a koff of 0.000632 s⁻¹, a kon of 1.13e+06 M⁻¹ s⁻¹ and a t1/2 of 18 min. In addition, in the experiment with cyno IL-33 N-His [10], binding was characterised by a dissociation constant (Kd) of 54 nM, the koff is 0.0204 s⁻¹, the kon was 379000 M⁻¹ s⁻¹ and the t1/2 is 1 min. Also, the “IC50; SEAP reporter (OD 620), HEK-BLUE IL-33/IL-1beta cells, 10 pM hIL-33” value in [2] is 3.3e-11 M. The “IC50 (read off the curve)” value in experiment [3] was 0.0003 to 0.0004 nM. For the same molecule, in experiment [4], the “IC50, IL-33-induced phospho-p38 in primary human basophils, 500 pM hIL-33” value worked out at 3.6e-13 M. The “Ph-p38 MFI at 2 nM Ab (500 pM human IL-33, primary basophils)” value in [5] worked out at 38 MFI. In addition, in experiment [6], the “IC50 (read off the curve)” value was in the range of 0.0003 to 0.0004 nM. In the experiment with biotinylated human IL-33, the IC50 was 0.092 nM and the “Maximum Blocking” value was determined as 82%. In [13], this molecule registered a Kd of 0.261 nM, a koff of 0.000738 s⁻¹, a kon of 2.82e+06 M⁻¹ s⁻¹ and a t1/2 of 16 min. For the same molecule, in the experiment with cyno IL-33 N-His [11], the Kd was 547 nM, the koff came to 0.000502 s⁻¹, the kon came out at 916 M⁻¹ s⁻¹ and the t1/2 amounted to 23 min. The “Ph-p38 MFI at 0.4 nM Ab (500 pM human IL-33, primary basophils)” value in experiment [7] was 67 MFI.

B5: Human IL-33 N-His Biotinylated (ligand)
ligand: MGSSHHHHHHSSGLVPRGSHMSITGISPITEYLASLSTYNDQSITFALEDESYEIYVEDLKKDEKKDKVLLSYYESQHPSNESGDGVDGKMLMVTLSPTKDFWLHANNKEHSVELHKCEKPLPDQAFFVLHNMHSNCVSFECKTDPGVFIGVKDNHLALIKVDSSENLCTENILFKLSET
modifications: biotinylated, sites not given
As for B5, the “EC50 (SEAP reporter OD 620, HEK-BLUE IL-33/IL-1beta cells)” value in experiment [8] was found to be 0.004 nM.
